# Reference: paper PMC5575276
# Columns and labels:
# [1] = target: TLM-core protein (2xTLM-HA-HBV core with strep-tag III in the spike tip), assembled to TLM-carrier capsid (hepatitis B virus) (UniProt P03146); assay: SPR; Biacore T200; TLM-carrier capsid (TLM-core protein) immobilised on a CM5 chip; streptavidin injected at five concentrations (4.7-75.7 nM) or streptavidin-Ova at six concentrations (1.9-62.5 nM); fitted with the heterogeneous ligand and the bivalent analyte models (1:1 model fitted poorly)
# [2] = target: recombinant hexa-his-streptavidin (UniProt P22629); assay: non-denaturing SDS-PAGE; purified and refolded protein on SDS-PAGE under non-denaturing against denaturing conditions
# [3] = target: streptavidin-Ova fusion protein (streptavidin, hexa-his tag, ovalbumin); assay: as above
# [4] = target: TLM-core protein (2xTLM-HA-HBV core with strep-tag III in the spike tip), assembled to TLM-carrier capsid (hepatitis B virus) (UniProt P03146)
# Chain of UniProt P03146 (P03146 whole entry): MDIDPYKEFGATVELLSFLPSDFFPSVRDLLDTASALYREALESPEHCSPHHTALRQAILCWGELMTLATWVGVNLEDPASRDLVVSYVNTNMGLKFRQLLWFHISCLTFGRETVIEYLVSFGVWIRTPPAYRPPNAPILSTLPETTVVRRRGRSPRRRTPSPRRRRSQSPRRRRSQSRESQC
Substance,"KD2 (heterogeneous ligand model, set 2, strong interaction) [1]","Ka1 (on-rate, bivalent analyte model, step 1) [1]","Ka2 (on-rate, bivalent analyte model, step 2) [1]","Ka2 (on-rate, heterogeneous ligand model, set 2, strong interaction) [1]","Kd1 (off-rate, bivalent analyte model, step 1) [1]","Kd2 (off-rate, bivalent analyte model, step 2) [1]","Kd2 (off-rate, heterogeneous ligand model, set 2, strong interaction) [1]",stoichiometry N [2],dissociation half-life (t 1/2) of the strong binding interaction [1],stoichiometry N [3],"IFN-γ secreted (ELISA, 72 h) by OT-I CD8+ T-cells co-cultured with BMDCs: Ova-loaded TLM-carrier capsid compared with free streptavidin-Ova [4]"
recombinant hexa-his-streptavidin (from UniProt P22629 25-183) (natural protein),4.74 nM,146000 M^- s^−1,8.16e-05 RU^- s^-,397000 M^- s^−1,0.0213 s⁻¹,0.00126 s⁻¹,0.00188 s⁻¹,4,,,
"streptavidin-Ova fusion protein (streptavidin, hexa-his tag, ovalbumin)",1.97 nM,94200 M^- s^−1,0.000428 RU^- s^-,356000 M^- s^−1,0.0104 s⁻¹,0.000823 s⁻¹,0.0007 s⁻¹,,16.5 min,4,> 10 fold
